{
  "source": "patent US8716246B2",
  "about": "“Azuvirin peptides” (The Regents of the University of California, priority 2011, dated 2014)",
  "key": {"rhEphB4": {"molecular_target": "T1, rhEphB4 (Homo sapiens, UniProt P54760)", "T1 construct": "purchased R&D Systems, Inc., Minneapolis, Minn", "T1 sequence (P54760 16-987)": "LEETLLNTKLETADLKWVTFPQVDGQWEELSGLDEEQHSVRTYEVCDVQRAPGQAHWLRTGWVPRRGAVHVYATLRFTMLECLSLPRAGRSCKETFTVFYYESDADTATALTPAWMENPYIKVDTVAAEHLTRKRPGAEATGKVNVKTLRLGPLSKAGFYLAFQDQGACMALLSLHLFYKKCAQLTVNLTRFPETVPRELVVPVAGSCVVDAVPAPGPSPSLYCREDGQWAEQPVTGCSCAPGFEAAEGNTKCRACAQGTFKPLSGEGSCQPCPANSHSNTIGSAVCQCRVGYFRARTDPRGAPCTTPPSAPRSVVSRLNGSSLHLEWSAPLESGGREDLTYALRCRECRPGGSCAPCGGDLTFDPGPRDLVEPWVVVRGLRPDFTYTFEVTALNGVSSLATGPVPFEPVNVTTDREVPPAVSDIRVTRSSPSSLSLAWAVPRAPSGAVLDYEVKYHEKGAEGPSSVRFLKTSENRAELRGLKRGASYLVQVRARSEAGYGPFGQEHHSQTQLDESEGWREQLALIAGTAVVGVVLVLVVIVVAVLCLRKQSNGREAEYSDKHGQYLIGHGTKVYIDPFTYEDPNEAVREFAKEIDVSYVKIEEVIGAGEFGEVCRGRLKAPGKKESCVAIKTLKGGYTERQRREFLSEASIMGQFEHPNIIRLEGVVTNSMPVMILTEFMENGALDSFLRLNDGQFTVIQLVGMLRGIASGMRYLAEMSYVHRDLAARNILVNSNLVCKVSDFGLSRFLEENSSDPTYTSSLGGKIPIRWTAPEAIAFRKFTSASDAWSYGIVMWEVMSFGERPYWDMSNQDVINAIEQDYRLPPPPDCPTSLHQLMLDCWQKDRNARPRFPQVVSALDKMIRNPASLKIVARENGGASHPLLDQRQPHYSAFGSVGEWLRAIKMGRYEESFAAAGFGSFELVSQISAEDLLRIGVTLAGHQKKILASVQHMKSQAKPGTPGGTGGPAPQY", "assay": "SPR binding to immobilized rhEphB4 (Biacore 3000)", "method": "Binding to selected ephrin receptors was measured by surface plasmon resonance on a Biacore3000 instrument. Commercially available ephrin receptors: EphA2, EphB2 and EphB4 (R&D Systems) were immobilized on a CM-5 chip by amine coupling and tested peptides were passed over a chip surface as analytes.\nBinding studies. Binding studies were performed by surface plasmon resonance (SPR) on a BIAcore 3000 system (BiaCore AB, Piscataway, N.J.). BIAcore CM5 sensor chips were utilized in all experiments. Binding studies were performed in HBS-EP running buffer (pH=7.4) containing 10 mM HEPES, 150 mM NaCl, 3 mM EDTA, and 0.005% polysorbate 20. Commercially available ephrin receptors: EphA2, EphB2 and EphB4 (R&D Systems, Inc., Minneapolis, Minn.) were immobilized on a CM5 sensor chip using the amine coupling method. The chip was activated by mixing 400 mM N-ethyl-N-(3-dimethylaminopropyl)-carbodiimide hydrochloride and 100 mM N-hydroxysuccinimide. Residual reactive groups on the chip surface were blocked using 1.0 M ethanolamine/HCl (pH=8.5). The flow cell-1 chip, which served as a control, lacked immobilized protein but was treated with N-ethyl-N-(3-dimethylaminopropyl)-carbodiimide hydrochloride, N hydroxysuccinimide, and ethanolamine/HCl. Binding signals were corrected for nonspecific binding by subtracting the flow cell-1 signal (blank surface). To regenerate chip surfaces, bound ligands were removed with 10 mM HCl. Data were analyzed with BIAevaluation 4.1 software (Biacore, Piscataway, N.J.)."}, "[1]": {"system": "human red blood cells (hRBCs)", "method": "Human red blood cells (hRBCs). Fresh blood (˜3 ml) was collected from an anonymous donor into a tube that contained heparin as an anticoagulant. An aliquot of blood (200 μl) was removed and washed 4 with 800 μl of cold PBS at room temperature, each centrifugation was for 3 minutes at ˜500×g. A total of 780 μl of supernatant was removed each time. With four washes, this procedure should remove >99.8% of the total serum protein and any heparin anticoagulant. The supernatant was completely removed in the last wash, leaving only the packed red blood cells, which were subsequently diluted 1:20 in PBS to make 5% v/v stock of hRBCs.\nHemolysis assay. The experiments were carried out as previously described. Briefly, 2.5% v/v normal human RBCs were exposed to various concentrations of AzV36-NicL at 37° C. for 30 min. All experiment were carried out in triplicate using 96-well microplate (Costar 3596) and OD at 700 nm was monitored every 30 s. employing the SpectraMAX 250 microplate reader (Molecular Devices, Sunnyvale, Calif.). Controls: PBS, human RBCs, human RBCs+2.5% Triton (100% lysis). The hemolytic effect was calculated as following: […]"}, "in vitro": {"assay": "in vitro", "conditions": "for peptide concentration remaining in human serum ± SEM (AUC): 37° C.", "method": "Serum stability. Human blood serum was prepared using BD Vacutainer→Rapid Serum Tubes (RST) (BD Diagnostics, Franklin Lakes, N.J.) according to manufacturer's recommendations. Serum was harvested and either used fresh or stored at −80° C. Stability of the AzV36-NicL in the human serum was determined as previously described. Briefly, 50 μl of an aqueous peptide stock solution (10 mg/ml) was added to 1.95 ml of 25% pooled, non-heat inactivated human serum in PBS and incubated at 37° C. […] The resulting mixtures were kept at 5° C. for 10 min and then centrifuged at 300 g for 5 min. 100 μl of the supernatants were analyzed using analytical ProStar 210 HPLC system with a ProStar 325 Dual Wavelength detector set at 220 nm and 280 nm (Varian Inc., Palo Alto, Calif.). The mobile phases were: Solvent A, 0.1% TFA (trifluoroacetic acid) in water; solvent B, 0.1% TFA in acetonitrile. Experiments were performed using Vydac 218TP54 C18 column, 4.6×250 mm, 5 μM (Grace Vydac, Hesperia, Calif.) in a linear 0 to 100% gradient of solvent B applied over 100 min at 1 ml/min."}, "[2]": {"conditions": "human, 25% pooled, non-heat inactivated human serum in PBS"}},
  "note": "Square brackets hold non-standard residues; d marks the D form. Peptide text beside a SMILES is read from it. * marks the point of attachment. Oic = O=C(O)[C@@H]1C[C@@H]2CCCC[C@@H]2N1; Cha = N[C@@H](CC1CCCCC1)C(=O)O; Tle = CC(C)(C)[C@H](N)C(=O)O; Nicotinoyl = O=C(c1cccnc1)*; Acm = CC(=O)NC*",
  "data": [
    {"molecule": "CC(=O)NCSC[C@H](NC(=O)[C@H](CC1CCCCC1)NC(=O)[C@H](CC1CCCCC1)NC(=O)[C@@H](CCCCNC(=O)c1cccnc1)NC(=O)[C@@H](N)Cc1ccc(O)cc1)C(=O)N[C@H](C(=O)N[C@@H](CC1CCCCC1)C(=O)N1[C@H](C(=O)N[C@H](CCCNC(=N)N)C(=O)N[C@@H](Cc2c[nH]cn2)C(=O)N[C@@H](CCCNC(=N)N)C(=O)N[C@H](C(=O)N[C@@H](CC2CCCCC2)C(=O)N[C@@H](CSCNC(C)=O)C(=O)N[C@H](CCCCN)C(N)=O)[C@@H](C)O)C[C@@H]2CCCC[C@@H]21)C(C)(C)C", "note": "[AzV36-NicL, YkNic-Cha-Cha-Cam-Tle-Cha-Oic-rHRT-Cha-Cam-k-CONH] (H-Y[dK](Nicotinoyl)[Cha][Cha]C(Acm)[Tle][Cha][Oic][dR]HRT[Cha]C(Acm)[dK]-NH2)", "values": [
      {"measurement": "Kd", "setting": "rhEphB4", "value": "5.83 ± 1.4", "unit": "nM"},
      {"measurement": "Hemolysis ± SEM", "setting": "[1]; 20 μM peptide (highest tested), 2.5% hRBCs, 37° C., 30 min", "value": "9.3±3.0", "unit": "%"},
      {"measurement": "hemolytic effect (in words)", "setting": "[1]; ≦10 μM peptide", "value": "non-hemolytic"},
      {"measurement": "peptide concentration remaining in human serum ± SEM (AUC)", "setting": "in vitro; 24 h, 25% human serum in PBS", "value": "100±0.64", "unit": "%"},
      {"measurement": "peptide concentration remaining in human serum ± SEM (AUC)", "setting": "in vitro; 6 days", "value": "97.8±2.86", "unit": "%"},
      {"measurement": "remaining at 24 h, 0.25 mg/ml", "setting": "in vitro; [2]", "value": "100 ± 0.64", "unit": "%"},
      {"measurement": "remaining at 144 h, 0.25 mg/ml", "setting": "in vitro; [2]", "value": "97.8 ± 2.86", "unit": "%"}
    ]}
  ]
}
